Experimental data as given in the DeepSol protein solubility set.

assay: soluble on expression in E. coli; label from the status in PepcDB or PDB records

Sequence | soluble on expression in E. coli
MLERILSRENLIQALERVEKNKGSYGVDEMDVKSLRLHLHENWTSIRNEIIEGSYFPKPVRRVEIPKPNGGVRKLGIPTVMDRFLQQAIAQILTQLYDPTFSERSFGFRPHRRGHNAVRQAKQWMKEGYRWVVDIDLEKFFDKVNHDRLMRKLSSRIQDPRVLQLIRRYLQTGVMERGLVSPNTEGTPQGGPLSPLLSNIVLDELDNELEKRGLKFVRYADDCNIYVRSKRAGLRIMESVTSFIENRLKLKVNREKSAVDRPWNRKFLGFSFTRGKDPKMRVSKESVKRLKQRIRELTSRRHSMKMSDRLRRLNRYLTGWLGYYQLVDTPSILAQIDAWIRRRLRMIRWKEWKTTSARQKNLVRLGIKKAKAWQWANSRKGYWRVAHSPIMDYALNSEYWKGQGLMSLAERYQTRRWTLEHHHHHH | not soluble
KKNNVYPELEAFIGKEIIFSDKNFNTVGNKAFKDQFLLISYVDSGNCTPCSLEKMQYMKTNKRRLLDTHTGVLMIVHEKDTFTVNEVFRQMHVSYPIFFDSLGCFKKENGIFDNPLYQDFVIDRSNKVVWLGNPLRNKQSWQQYEKAISMLMD | not soluble
VELKVKRFPISRYQANNEASDDLIKGAFVGLTNVTFSFAGNIVRVVDTGMDILYNLQPIDEFANSITNVSKTVYKTLKKN | not soluble
MKRLAVILITLALVSSMCITNSNEKRENMKNAKVLMVIAPKDFRDEELFEPMAVFESNGLKVDVVSTTKGECVGMLGNKITVEKTIYDVNPDDYVAIVIVGGIGSKEYLWNNTKLIELVKEFYNKNKVVSAICLSPVVLARAGILKGKKATVYPAPEAIEELKKAGAIYEDRGVVVDGNVITAKSPDYARLFGLEVLKAIEKNNE | soluble
MSVASLFEKFFLSASFIDKAPRTQKDYLGYKKDLLIAFGKMDINKVEPKHVRMFMDKKAVKSGISQANRHKSALQSIFSWAYERGKIKVNPCVGVKKFTEKLEHHHHHH | not soluble
MGGKMEKITCVGHTALDYIFNVEKFPEPNTSIQIPSARKYYGGAAANTAVGIKKLGVNSELLSCVGYDFKNSGYERYLKNLDINISKLYYSEEEETPKAWIFTDKDNNQITFFLWGAAKHYKELNPPNFNTEIVHIATGDPEFNLKCAKKAYGNNLVSFDPGQDLPQYSKEMLLEIIEHTNFLFMNKHEFERASNLLNFEIDDYLERVDALIVTKGSKGSVIYTKDKKIEIPCIKAGKVIDPTGAGDSYRAGFLSAYVKGYDLEKCGLIGAATASFVVEAKGCQTNLPTWDKVVERLEKHRI | soluble
MKKQKKARLIYNPTSGQEIMKKNVAEVLDILEGFGYETSAFQTTPTKNSARDEATRAAQAGFDLIVAAGGDGTINEVVNGIAPLKRRPKMAIIPTGTTNDFARALKIPRGNPIEATKLIGKNQIVKMDIGQAQEDNYFINIAAAGSLTELTYSVPSQLKTTFGYLAYLAKGVELLPRVRKVPVKITHDKGEFIGDASMIFVAITNSVGGFEQIAPDAKLDDGKFTLILVKTANLIEIMHLIRLVLAGGKHINDKRVEYIKTSYLTIEPLSDERMMINLDGEYGGDAPITLANLKNHIRFFANTDEISDDALVLDKDELAIEAIAQKFANEVDDLEGLGD | soluble
MNKHQKPVLTGQRFKTRKRDEKEKFEPTVFRDTLVQGLNEAGDDLEAVAKFLDSTGSRLDYRRYADTLFDILVAGSMLAPGGTRIDDGDKTKMTNHCVFSANEDHETIRNYAQVFNKLIRRYKYLEKAFEDEMKKLLLFLKAFSEAEQTKLAMLSGILLGNGTLPATILTSLFTDSLVKEGIAASFAVKLFKAWMAEKDANSVTSSLRKANLDKRLLELFPVNRQSVDHFAKYFTDAGLKELSDFLRVQQSLGTRKELQKELQERLSQECPIKEVVLYVKEEMKRNDLPETAVIGLLWTCIMNAVEWNKKEELVAEQALKHLKQYAPLLAVFSSQGQSELVLLQKVQEYCYDNIHFMKAFQKIVVLFYKADVLSEEAILKWYKEAHAAKGKSVFLDQMKKFVEWLQNAEEESESEGEES | soluble
MEIKQTIAKNLNRVKNELGLKNQDLAEVMGVTRQTIAKYLKGEQIPDSAKLFLLSRRLNIPMKDLIVSSDDQREPMSSFMFRADNPKENFRLIDQNQVNRIMDDYYELLASFGEASVAYLPPTYKLKLVDHELTEEHKTIIRQAAEQTRKMFGLDHVIPSDIYAVLEHHGIHVIALKTIDKKIDGLSAYSEEKGAFIFLNDHDEIPEERKRFSVIHELGHLIFHREEYRSDLSSLTYSSARREINEKVATLFASYFLIPREQLREYAYYFKRYVTIETIMELKRQFFVSAEAFMRALLDEQYISGRTYGFLRKTLREQGYKEQEPAPIDYIPKNRKLTYFVKQAYFEGSITINKVCEILGCDLRTAREMIKGWYKEHGCSENTGAL | not soluble
MTQDRPLLAVQEALKKCFPVVEEQQGLWQSALRDCQPLLSSLSNLAEQLQAAQNLRFEDVPALRAFPDLKERLRQPSSSRCETWSAAMWSECFRSMSNTQTQLALMLSCSLQQ | soluble
MKPVQSVSATQHYNPLTNLGQEASCSHEISGITQTEGMQATAATTQTAEQLTTARVRDITAAAKVIPDGTTVMSRKPEDLSQLQTAYLAAKNAPTHPDLYLKLCETFRVHDERHASEGHENICAKTMTARIDDDAIRVMAYASRGMHGGDVNNFLKFSFNSGLPNPISSALPSMLTFGASSFIGAVHGPWSGFGSALAFAAAKPFMAGGIQPAIVSLCDNIRGRNAPTVLAKGEVNDEIWLDAAAQTLEGLNEDTRRALTSFDDAVQAAITSVGIRDPKFLETDEGLELFFDHLSDTHFNCLREALEGVNNALQNTAPQTRESLRALEEASRPNMLEQRETTLKAEFSNLRQKEGNDWQRIPRSLRASGGTLTSGLSGLKRDEIPTRMNPALDRKSHFEGLNALASPAVGTSYAAAISLLQSPMAGLDERNKQKFNVKAAIVFYDAFTPEGKQRYLAGEEMDPDRDVDQAKLRGVFTSVSEYMVKSTQENLKQRQKVLGVEISEAGHALNALPENTSSITPPEIRAKVERYKALSADMSAVTQAIREGNPNFLTDLPDGEVKKAFDDCVNSGGMHVLENMTKVKYAKQGELKAQWTQKVSTDVSMFGLAGQFTPSIVNKLAAAICGGAGHIPNAVVGFLGAYSLAASFIGAQTQFAAINAKNNFREGNPKPTSLETFMRGNLAPVMQASANRHSQHALQGAEQAISTARQALNSSLGQNL | not soluble
GAVDLNKENRDPKYVESIVNRSQKIVDKLGLTDAKVAEDVCNVIANRYFELNDIYEIRDAKVKAVKESGLTGDAKNEALKAAENEKDAALYRSHFAFPASLSLFLNEEQIEAVKDGMTYGVVKVTYEATLDMIPSLKEEEKVQIYAWLVEAREFAMDAENSNKKHAAFGKYKGRINNYLAKRGYNLTKEREEWAKRVKARGGTL | soluble
AVVETAAMFDGTEGTLGRSMTLEDMELMTWAIFQSGQKIPAKVYSKILAQWDLYSYQMAVFHEAYDILLTPTVADVTPKHGQFALSESLQNQLKQIAYFDWPKQQELIWAMFADSLDWTSFTQRANLTGQPSISLPIYRNADGLSLGVQLTSAKGREDLLLLLAKQMEE | not soluble
MANVNTFSIVKNVKLDLGIEDDNQDQLLEMLLNRITDHFKANYGVLEIDNAFSFVLEDCLIARFNRRGSERAKTEEVEGHKTTYYDHLNEFEPYDAMIMAKLNLIKDKSRKGGLYFL | not soluble
MLGDVERFFSKKALEMRASEVRELLKLVETSDIISLAGGLPNPKTFPKEIIRDILVEIMEKYADKALQYGTTKGFTPLRETLMKWLGKRYGISQDNDIMITSGSQQALDLIGRVFLNPGDIVVVEAPTYLAALQAFNFYEPQYIQIPLDDEGMKVEILEEKLKELKSQGKKVKVVYTVPTFQNPAGVTMNEDRRKYLLELASEYDFIVVEDDPYGELRYSGNPEKKIKALDNEGRVIYLGTFSKILAPGFRIGWMVGDPGIIRKMEIAKQSTDLCTNVFGQVVAWRYVDGGYLEKHIPEIRKFYKPRRDAMLEALEEFMPEGVKWTKPEGGMFIWVTLPDGIDSKKMLERAIKKGVAYVPGEAFYAHRDVKNTMRLNFTYVDEDKIMEGIKRLAETIKEELKA | soluble
MSLKIIVVGCGKIGYTIAKVLSEKKDIDVTVVDNNPNIFDKMVEPIDVIFISGNGANEKTLIEAGAKDADLIVSTTNADELNVLCCIMAERLGTKHSIARVRNPEYMLEFNKLWKDLGIDMVINPERQTAREISRILRYHAADDIVTFIGDRVELVSFKVSETPEYFVGKSVSQIFDNNMGILLAIVERENQALIPNGDLIFKESDIIWIMGRPSQIMKFFTLIKKGPKKGQEIMVIGGGKITHYLVELLNRHTTKANIKIIKKDRSKCESLYEALSSASLERRCLFIHGDGTNEELLIDEGIDTMDACVCLTDRDEENVFISLYAMRRGVKKVITKINYIHQNMAKSLGLWLGNIITPQYITAKTVIRYVDGLSGAVGRNIMTIHQIYSGDDGNVDAIEFQVNKKAKCIDTPIKKLKLKKGILIGCISRDFDIIIPSGETEIHIGDRVIIFSKNNDIRDLDDILENEGHHHHHH | soluble
MGSDKIHHHHHHMDVSITQTSADKIKAGKSGLLLISDNYDAFAARVLAARGAARTLDLMYYLWHDDHTGRLLLQEVVRAAQRGVRVRMLLDDVNPRKSDAAYLALSNHPNIELKLFNPSGIRARGLMRGAEVLLRLFALTRRMHNKAWIADDNIAIVGGRNVGDAYFDAAETNFRDLDMLLLGPAVQQTAQIFQTFWVCQDAKPIAELGAAAPGSHAPYFEGREEKTESTLLSGIRDKGSIAEFISASSNVHWVERVRVISDPPEKVRGWRPRSWLMKELLPIIQSARKRVEIVSPYFIPGKKGSKILGDLVDDGVQVAVLTNSLAATDVAAVHGAYANYRKRLLRMGVQLFELQPFSRQPKISVFGSKGASLHTKAFSVDNRIGFVGSFNFDPRSVSLNSEMGVLFEDENLVAELRHRFKSEIAPEASYRLELKNEVLRWHGSDEGRLQTYTREPEAAWFRRILAALVRHLPIESQL | not soluble
MGLIIYHKGGRKMKKNILIVGGGPEITICYDLINNSTEYNFFSVSEIPTMYPELFVETIETSFRNFGKTIEQIKELKYSIDAVACWDEALTHIADDISKELGLNPISSLDSQSFRFKDRMRMVCEAGGLKMPKYKIINQFSDTNKIINWKYPLIVKPTSFLASIGVKKVYNFSELQQAVSQMLNVKFPVYIASGVYELGELYNLEPRVLVEEFIDGEEYSLESVVRNGIYTPLGITKKIVDEKLFMDEIGHIFPSNLNKEEKSRVYSWAEKLHQILQLNHITTHTEFRIGRNGDIILIEIGARIGGDCIPNLMKNSFIVKGFDFYNTYLKARLGLQEELNTDTNKFSGIVFFRLNPENYGKIFNGVSYDAPKTSLIFEEKIYKKEGTVLPNPINWSNERVGYVCLENKEYAVLEKEMKEILKSLSIE | not soluble
MKLIFLSGVKRSGKDTTADFIMSNYSAVKYQLAGPIKDALAYAWGVFAANTDYPCLTRKEFEGIDYDRETNLNLTKLEVITIMEQAFCYLNGKSPIKGVFVFDDEGKESVNFVAFNKITDVINNIEDQWSVRRLMQALGTDLIVNNFDRMYWVKLFALDYLDKFNSGYDYYIVPDTRQDHEMDAARAMGATVIHVVRPGQKSNDTHITEAGLPIRDGDLVITNDGSLEELFSKIKNTLKVL | soluble
GQTTIQVRVPYRVVGLVVGPKGATIKRIQQRTHTYIVTPGRDKEPVFAVTGMPENVDRAREEIEAHITLR | soluble
MIRFLGNIEVRADAKGRVFIPATFRKQLQAASEERLIMRKDVFQDCLTLYPESVWNEELNELRSRLNKWNSKHQLIFRQFVSDVEVVTPDSNGRILIPKRYLQICNIRGDIRFIGIDNKIEIWAKERAEQPFMSPEEFGAALEEIMNDENRQDGER | not soluble
